± gives the standard deviation of the averaged measurements.
Key:
MCF7 = assay: percentage of EdU-negative (G0-arrested) nuclei per well, 72 h; higher = more G0 arrest; conditions: reference: sequence is the full UniProt precursor, the tested protein was the secreted form or ectodomain
hTERT-HMEC = assay: as above; conditions: reference: sequence is the full UniProt precursor, the tested protein was the secreted form or ectodomain
[1] = protein concentration 0.0257143 µM
[2] = protein concentration 0.257143 µM
[3] = protein concentration 0.03125 µM
[4] = protein concentration 0.3125 µM
[5] = protein concentration 0.0225 µM
[6] = protein concentration 0.02175 µM
[7] = protein concentration 0.2175 µM
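Further: secreted proteins added to cultured cells, EdU pulse at the end, nuclei found by Hoechst imaging, EdU status from nuclear versus surrounding ring intensity ratio, PBS as neutral control.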

Row | Sequence | percentage of EdU-negative (MCF7; [5]) [%] | percentage of EdU-negative (MCF7; protein concentration 0.225 µM) [%] | percentage of EdU-negative (hTERT-HMEC; [5]) [%] | percentage of EdU-negative (hTERT-HMEC; protein concentration 0.225 µM) [%] | also measured
1 | MGRDLRPGSRVLLLLLLLLLVYLTQPGNGNEGSVTGSCYCGKRISSDSPPSVQFMNRLRKHLRAYHRCLYYTRFQLLSWSVCGGNKDPWVQELMSCLDLKECGHAYSGIVAHQKHLLPTSPPISQASEGASSDIHTPAQMLLSTLQSTQRPTLPVGSLSSDKELTRPNETTIHTAGHSLAAGPEAGENQKQPEKNAGPTARTSATVPVLCLLAIIFILTAALSYVLCKRRRGQSPQSSPDLPVHYIPVAPDSNT [Q9H2A7] |  |  |  |  | percentage of EdU-negative (MCF7; [1]): 25.9 ± 0.7%; percentage of EdU-negative (MCF7; [2]): 25.9 ± 2.8%; percentage of EdU-negative (hTERT-HMEC; [1]): 4.5 ± 0.52%; percentage of EdU-negative (hTERT-HMEC; [2]): 4.18 ± 0.16%
2 | MGHPPLLPLLLLLHTCVPASWGLRCMQCKTNGDCRVEECALGQDLCRTTIVRLWEEGEELELVEKSCTHSEKTNRTLSYRTGLKITSLTEVVCGLDLCNQGNSGRAVTYSRSRYLECISCGSSDMSCERGRHQSLQCRSPEEQCLDVVTHWIQEGEEGRPKDDRHLRGCGYLPGCPGSNGFHNNDTFHFLKCCNTTKCNEGPILELENLPQNGRQCYSCKGNSTHGCSSEETFLIDCRGPMNQCLVATGTHEPKNQSYMVRGCATASMCQHAHLGDAFSMNHIDVSCCTKSGCNHPDLDVQYRSGAAPQPGPAHLSLTITLLMTARLWGGTLLWT |  |  |  |  | percentage of EdU-negative (MCF7; [3]): 23.5 ± 1.9%; percentage of EdU-negative (MCF7; [4]): 21 ± 1.2%; percentage of EdU-negative (hTERT-HMEC; [3]): 5.81 ± 0.25%; percentage of EdU-negative (hTERT-HMEC; [4]): 5.79 ± 0.076%
3 | MDYPTLLLALLHVYRALCEEVLWHTSVPFAENMSLECVYPSMGILTQVEWFKIGTQQDSIAIFSPTHGMVIRKPYAERVYFLNSTMASNNMTLFFRNASEDDVGYYSCSLYTYPQGTWQKVIQVVQSDSFEAAVPSNSHIVSEPGKNVTLTCQPQMTWPVQAVRWEKIQPRQIDLLTYCNLVHGRNFTSKFPRQIVSNCSHGRWSVIVIPDVTVSDSGLYRCYLQASAGENETFVMRLTVAEGKTDNQYTLFVAGGTVLLLLFVISITTIIVIFLNRRRRRERRDLFTESWDTQKAPNNYRSPISTSQPTNQSMDDTREDIYVNYPTFSRRPKTRV | 25.5 ± 2.7 | 23.8 ± 1.8 | 4.86 ± 0.72 | 5.13 ± 0.67 | 
4 | MTLFPVLLFLVAGLLPSFPANEDKDPAFTALLTTQTQVQREIVNKHNELRRAVSPPARNMLKMEWNKEAAANAQKWANQCNYRHSNPKDRMTSLKCGENLYMSSASSSWSQAIQSWFDEYNDFDFGVGPKTPNAVVGHYTQVVWYSSYLVGCGNAYCPNQKVLKYYYVCQYCPAGNWANRLYVPYEQGAPCASCPDNCDDGLCTNGCKYEDLYSNCKSLKLTLTCKHQLVRDSCKASCNCSNSIY | 24.2 ± 0.4 | 27.5 ± 3 | 4.68 ± 0.23 | 4.83 ± 0.81 | 
5 | MTSSGPGPRFLLLLPLLLPPAASASDRPRGRDPVNPEKLLVITVATAETEGYLRFLRSAEFFNYTVRTLGLGEEWRGGDVARTVGGGQKVRWLKKEMEKYADREDMIIMFVDSYDVILAGSPTELLKKFVQSGSRLLFSAESFCWPEWGLAEQYPEVGTGKRFLNSGGFIGFATTIHQIVRQWKYKDDDDDQLFYTRLYLDPGLREKLSLNLDHKSRIFQNLNGALDEVVLKFDRNRVRIRNVAYDTLPIVVHGNGPTKLQLNYLGNYVPNGWTPEGGCGFCNQDRRTLPGGQPPPRVFLAVFVEQPTPFLPRFLQRLLLLDYPPDRVTLFLHNNEVFHEPHIADSWPQLQDHFSAVKLVGPEEALSPGEARDMAMDLCRQDPECEFYFSLDADAVLTNLQTLRILIEENRKVIAPMLSRHGKLWSNFWGALSPDEYYARSEDYVELVQRKRVGVWNVPYISQAYVIRGDTLRMELPQRDVFSGSDTDPDMAFCKSFRDKGIFLHLSNQHEFGRLLATSRYDTEHLHPDLWQIFDNPVDWKEQYIHENYSRALEGEGIVEQPCPDVYWFPLLSEQMCDELVAEMEHYGQWSGGRHEDSRLAGGYENVPTVDIHMKQVGYEDQWLQLLRTYVGPMTESLFPGYHTKARAVMNFVVRYRPDEQPSLRPHHDSSTFTLNVALNHKGLDYEGGGCRFLRYDCVISSPRKGWALLHPGRLTHYHEGLPTTWGTRYIMVSFVDP |  |  |  |  | percentage of EdU-negative (MCF7; [6]): 25.1 ± 1%; percentage of EdU-negative (MCF7; [7]): 28.2 ± 1.3%; percentage of EdU-negative (hTERT-HMEC; [6]): 5.45 ± 1.1%; percentage of EdU-negative (hTERT-HMEC; [7]): 8.17 ± 1.2%
6 | MSFPCKFVASFLLIFNVSSKGAVSKEITNALETWGALGQDINLDIPSFQMSDDIDDIKWEKTSDKKKIAQFRKEKETFKEKDTYKLFKNGTLKIKHLKTDDQDIYKVSIYDTKGKNVLEKIFDLKIQERVSKPKISWTCINTTLTCEVMNGTDPELNLYQDGKHLKLSQRVITHKWTTSLSAKFKCTAGNKVSKESSVEPVSCPEKGLDIYLIIGICGGGSLLMVFVALLVFYITKRKKQRSRRNDEELETRAHRVATEERGRKPHQIPASTPQNPATSQHPPPPPGHRSQAPSHRPPPPGHRVQHQPQKRPPAPSGTQVHQQKGPPLPRPRVQPKPPHGAAENSLSPSSN | 24.6 ± 0.84 | 26.8 ± 0.55 | 5.27 ± 1.3 | 5.92 ± 0.1 | 
7 | MWLLPALLLLCLSGCLSLKGPGSVTGTAGDSLTVWCQYESMYKGYNKYWCRGQYDTSCESIVETKGEEKVERNGRVSIRDHPEALAFTVTMQNLNEDDAGSYWCKIQTVWVLDSWSRDPSDLVRVYVSPAITTPRRTTHPATPPIFLVVNPGRNLSTGEVLTQNSGFRLSSPHFLLVVLLKLPLLLSMLGAVFWVNRPQWAPPGR [Q496F6] | 23.3 ± 1.9 | 26.6 ± 0.81 | 5.54 ± 0.7 | 5.97 ± 1.6 | 

Source: the supplement of paper PMC11316812
